Test results taken from article PMC6241527.

Experiments:
[1] = target: H7 hemagglutinin (A/Shanghai/2/13) (influenza A virus (A/Shanghai/2/13, H7)); assay: crystal structure
[2] = target: H1 hemagglutinin (A/Solomon Islands/3/06) (influenza A virus (A/Solomon Islands/3/06, H1)); assay: crystal structure

Substance	stoichiometry N [1]	stoichiometry N [2]
H7 hemagglutinin (A/Shanghai/2/13) (natural protein)	3	–
H1 hemagglutinin (A/Solomon Islands/3/06) (natural protein)	–	3
